Reference: publication PMC11888354

Target: nucleosome with Cy5-labeled human histone octamer (H2A(K119C), H2B, H3(C110A), H4) reconstituted on lambda DNA (human) (UniProt P06899)
Test: single-molecule fluorescence colocalisation

- nucleosome co-localization dwell time τ slow (with 2 nM Nap1): 1.1 s
Substance: Cy3-labeled human linker histone H1.0(S22C) (from UniProt P07305 1-194) (natural protein)
